Data: paper PMC2444025
Read-outs that look alike come from different tables or passages of the source.

What was measured:
[1] = tested on: Immunoglobulin E (IgE), human myeloma (human); conditions: in solution; full-length clone; Blocking buffer: 10 mg/mL casein, 0.1% Tween-20, 8.1 mM Na2HPO4 (printed N2HPO4), 1.1 mM KH2PO4, 2.7 mM KCl, 137 mM NaCl (138 mM also listed), 1 mM MgCl2, pH 7.; cited from earlier work
[2] = tested on: Immunoglobulin E (IgE), human myeloma (human); test: DNA microarray fluorescence; conditions: Blocking buffer: 10 mg/mL casein, 0.1% Tween-20, 8.1 mM Na2HPO4 (printed N2HPO4), 1.1 mM KH2PO4, 2.7 mM KCl, 137 mM NaCl (138 mM also listed), 1 mM MgCl2, pH 7.

CTACCTACGATCTGACTAGCCAATGAGTGTACCACGTTTATCCGTCCCTCCTAGTGGCGTGCTTACTCTCATGTAGTTCC [D 17.0]
Kd [1]: 9 nM
Kd [2]: > 100 nM
